Assay results reported in the nanobody polyreactivity screen of Harvey et al. (2022).

Assay: yeast display, Sf9 membrane polyspecificity reagent, FACS + sequencing; frameworks hold sequencing errors
Method in brief: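 After 36–48 hours of galactose induction, yeast (Saccharomyces cerevisiae BJ5465) displaying a synthetic nanobody library were stained at 4 °C for 1 hour with 10% biotinylated, detergent-solubilized Sf9 membrane reagent. Streptavidin microbeads enriched the stained cells before FACS sorting into low and high (top ~1%) gates on anti-HA and streptavidin fluorescence. Each clone's polyreactivity label reflects its gate of origin.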

Row | Sequence | polyreactivity (PSR sort gate)
1 | QVHHVESGGGLVQAGGSLRLSCAASGGTFRVYTMGWYRQAPAKVRELVAAITRNGGSTYYADSVKGRFTISRDNAKNSVYVQMNSLKPDDTAVYYCAARGGVPYSHAYDYWGQGTQVTVSS | low polyreactivity
2 | QVHHVESGGGLVQAGGSLRLSCAASGRIFYPYAMGWYRQAPGKERELVASITSGGGTYYADSVKGRFTISRDNAKNTVYLQMNSLKPEDTAVYYCAAKYYTSWIRYDYWGQGTQVTVSS | low polyreactivity
3 | QVHHVESGGGLVQAGGSRRLSSAASRIIIDTNAMGWSSQAPGKERELVASISTRGGSTYYADSVKGRFTISRDNAKNTVYLQMISLKPANTPVYYCNAVQTYSGGYEYWGQGTQVTVSS | high polyreactivity
4 | QVHIVESGGGLVQAGGSLRISCAASGRILLLYDMGWYRQAPGKERELVAAINWDGGYSYADSVKGRFTISRDNANNTVFLQMNSLKPADTAVYYCAKDDIWEHYDYWGQGTQVTVSS | low polyreactivity
5 | QVHIVESGGGLVQAGGSLRLSCGASGFTFIYAMGWYRQAHAKEREMVAAITRSGGSTYYADSVKGRFTISRDNAKNTVYSQMNILKPEDTAFYYCAARLRYQGRGYRYWGQGTQVTVSS | high polyreactivity
6 | QVHLEESCGGLVQAGGTLRLSCAASGSTFPRYVMGWYRQAPGKERELVAAITSGGSTYYADSVKGRFTISRDNAKNTVYLQMNRLKPEDTAVFYCAAGSYRVVWYDSWGQGTLVTVSS | high polyreactivity
7 | QVHLEESGGGIVQAGGSLRLSCAASGFTFPVHAMGWYRQAPGKERQLVAAIRWIGGDTYYADSVKGRFTISRDNAKNTVYLQMNSLKPEDTAVYYCAAEDTDDYSIWFEYWGQGTQVTVSS | high polyreactivity
8 | QVHLEHSAGGLVQAGGILRLSSPASGSIVVTNAMGWYRQAPGKERELVAAISNSGSSTYYADSVKGRFTISRDNSKNTVYLQMNSLKPEDTAVYYCAADEPTWDWSYPYGYWGQGTQVTVSS | high polyreactivity
9 | QVHLLERGGGLVQAGGSLRLSCMASGSILGDSMSWYRQAPGKEHELVATIYDGGITYYADSMKGRFTISRDNAKNSVYLQMNSLRPEDTAVYYCGASFEGYSYHVYCGQGTQVTVSS | low polyreactivity
10 | QVHLLESGGGLLQAGGSLLISCAAAGRTFGQNAMGWSRQAPGKARELVASIRSGGITDYADSVKGRYTISRDNAKYSVYLQMNSLKPEDTAVYYCNAEGVWWSTRYDSWGQGTQVTVSS | low polyreactivity
11 | QVHLLESGGGLVKAGGILRLSCAASGYIFPRYAMGSYRQSPGKDRELVAAITSGGSTYYADSVKGRFTISRDNAKNTVYLQMNSLKPEDTAVYYCIDPYHGREYEWGQGTQVTVSS | high polyreactivity
12 | QVHLQEIGGGLVQAGGSLRQSCAASGTISDSGLMGWYRQAPGKERELVAGISSGGITNYADSVKGRFTISRDNAKNTVYLQMNSLKPEDTAVYWGQGTQVTVSS | low polyreactivity
13 | QVHLQERGGGLLQACGSQRLSCAASGSISEVQYMGWYRRAPGKEREFVAGIAPGATTYYADSVKCRFTISRDNAKNTVFLQMNSLNPEYTDVDYFEDRYVTETDHDYWGQGTQVTVCS | low polyreactivity
14 | QVHLQESGGGLVQAGGSLRLSCAASGTIFASQHMGWYRQAPGKERELVASIAKGGTTYYADSVKGRFTISRGNAKNTEYLQMNRLKPEDTAVYYCAARGWGYRRTYVYAWYDYWGQGTQVTVSS | high polyreactivity
15 | QVHLQESGGGMVQAGGSLRLSCAESGNIFLGDTMGWYRQPPGKEREFVAGIARGGNPYYADSLKGRFTISRNNAKNTVYLQKNSLKPEDTAVHYCAFLRSHASDYIYWGQGTQVTVSS | low polyreactivity
16 | QVHLVDSGGGLVQAGGSLRFSCAASGSIFGWYAMGWYRQAPGTERELVDSIAVTAGSTYYADSVKWRFPISRDKAKNTGYLQLNRLKPEDTALYSCAADDYSADAVQRFYYWGQGSQVTVSS | low polyreactivity
17 | QVHLVDSGGGLVQAGGSLRLSCAASGFIFSKYAMGWYRQAPGKERELVAAISWNGGSTYYADSVKGRFTISRDNAKNTVYLQMNSLKPEDTAVYYCNARGRYRKSERRAFDYWGQGTQVTVSS | high polyreactivity
18 | QVHLVDSGGGLVQAGGSLRLSCAAYGSTFHPYAMGWYRQAPGKERELVADITSSGSTHYADSVKGRFTISRDNAKNTVYLQMNSLKPEDTAVYYCAAGIPWASDSGDPSFEYWGQGTEVTVSS | low polyreactivity
19 | QVHLVDSGGGLVQAGGSLRLSSAASGRIFGHYALGGYRQAPGKPRELVAAIRYSAGRTYYAGSVKGRFTISRDNAKNSVNLQMNSLKPEDTSVYYCAKTCRYLTGGGDYWGQGTQVTVSS | high polyreactivity
20 | QVHLVDSGGGLVQAGGSLSLRCAASRRSFVPYAMGWYSQGPGKEREFLADITWSTCTSTYYADSEKGRFTISRDNAKNTVYLHMNSLKPEDTAVYYCAVDIWWPNWYYIYWGQGTQVTLSS | low polyreactivity
21 | QVHLVDSGGGVVVAGGRLRLSCAASVFTFDRNAMGWYRHARGKERALVAAISSSGGRTYYADSVKGRFTISRDNAKNTFYLQMNSLKPEDTAVYYCNAVPSARTQPYNGWGQGSQVTVSS | high polyreactivity
22 | QVHLVDSRGGLVQAGGSLRLSCAASGRISVFYTMGWYRQEPGKEREMVATITTSGGFTYYADSVKGRFTNSRDNAKNTVYLLMNSLKPEDTAVYYCAAVLGYRFYEYYFWGQGTQVTVSS | low polyreactivity

Row | Sequence | polyreactivity (PSR sort gate)
23 | QVHLVEAGGGLVQAGGSLRYSCAASGYTFKLYAMGWYRQAPGKESELVAAITSGGSTSFADSVKGRFTISRDNAKNTVYLQMNSLKPEDTAVYYCAKRYSSYRAWYRNVGYYYWGLGTQVTVSS | high polyreactivity
24 | QVHLVESAAGLVQAGGSLRLSCAASGSTFIGNAMVWYRQAPGKERELVAAITRSGGTTYYADSVKGRFTISRDNAKNTVYLQMNSLKPEDTAVYYCNKTHFFGYDSWGQGTQVTVSS | low polyreactivity
25 | QVHLVESAAGLVQEGGSLRVSCAASGRIFDIYAMGGYRQSTGKERELVAAITLRGGTTYADSVKGRFTISRDNAKNSVYLQMNSLKPEDTAVYYCARYHWYYRVSKSESWGQGTQVTVSS | high polyreactivity
26 | QVHLVESCGGLVQAGGSLRLSCAASGNTFVYNDMGWYRQAPGKERELVDDIRYSGSTYYADSVKGRFTISRDNAKNTVYLQMNSLKPEDTAVYYCAKAYYVLSWMGYWGQGTQVTVSS | low polyreactivity
27 | QVHLVESGGAFVQAGGSLRLSCAASGRTFGYKAMGWYRQAPVNERELVAAITAGGSTNYADSVKGRFTISRDNAKKTVELQMNRLKPEDTAVYDSAARTYYVPYYYWGQGTQVTVSS | high polyreactivity
28 | QVHLVESGGCLVQAGGSLRLICAASGRIFDGNTMGWYRQEPGKERELVAAISGVGSTDYADSVKGRYTISRDNAKNTVYFQINSLKPEDTAVYYCAATTGPVPLKGDYWGQGTQVTVSS | low polyreactivity
29 | QVHLVESGGCLVQSGGSLRLSCAASGSTFPSYAKGWYRQAPGKERELVAAINSGGGTNYADSVKGRFTISRDNAKNTVYLQMNILKPEDTAVYYCAADVWKLYAYWGQGTQVTVSS | low polyreactivity
30 | QVHLVESGGGIVQAGGSLRLSCAASVRTFQYYAMGWYRKAPGKEREFVAAITRTGARTYYADSVKGRFTISRDNAKNTVYLQMNSLKPEDTAVYYCAKSLTFYSWRDYGYWGQGTQVTVSS | high polyreactivity
31 | QVHLVESGGGIVQARGSLRLSCDASGFIFYDYAMGSYRLAPGKEWELVAAISKRGGSRYYADSVKGRFTISRDNAKNTVYLQMNSLKPEDTAVYYCATEVEPYAYGYWGQGTQVTVSS | high polyreactivity
32 | QVHLVESGGGLDQAGGSLRLSCAASGRIFPLYAMGWYRQAPGKERELVAAISSGGTTYYADSVKGRFTISRDNAKNTVYLQMHSLKPEDTAVYYCARRPAQRWGRFDYWGQGTQVTVSS | low polyreactivity
33 | QVHLVESGGGLIQAGGSLRISSAPSGSTFGTYVMGWSRQAPGKERELVAAISKRGGRTYYADSVKGRFTISRDNAKNTVYVPMTSLKAEDTAVYYCYAVYLYSGSSARYYWGQGTEVTVSS | high polyreactivity
34 | QVHLVESGGGLLQAGGSLRLSCAASGFTFFVNAMGWYRQAPGKERELVAAISIRSGGRTYYADSVKGRFTISRENAKNTVYLQMNSLKPEDTAVYYCAAESSRPEHTFHYYRFLFDYWGQGTQVTVSS | low polyreactivity
35 | QVHLVESGGGLVHAGGSLRLSSAASGFIFRYYAMGWYRQAPGKERELVAAITSLGGRTYYADSVNGRFTISRDYAKNTVYLQMNSLKPEDTAVFYCAKSTRGTYDMGFWGQVTQVTVSS | high polyreactivity
36 | QVHLVESGGGLVKAGGSLRISCAASGRTSVLYAMGWYRQAPGKDREFVAAITWNSGSTYYADSVKGRFTISRDNAKHTVYLQMNCLKPEDTAVYYCAADVYYEYDYWGQGTQVTVSS | low polyreactivity
37 | QVHLVESGGGLVQAAGILRLSSAASGFTFVPYAMGWYRQAPGKERELVAAISWRRGSTYYADSVKGRFTISRDNAKITVYLQMNSLKPEDSGVYYGDDQYFSRSGYWGQGTQVTVSS | high polyreactivity
38 | QVHLVESGGGLVQAGCCLRLRCAASGRTYDAYAKAWYRQAPGKERELVAAISSGDITNYADSVKGRFTISRDHAKNTVYLQMNSLKPEDTAVYYCAAKPRLRFFLWHEYSSRYDYWGQGTQVTVSS | high polyreactivity
39 | QVHLVESGGGLVQAGCSLRLSCAASGYIFVRNAMGWYRQAPGKERELVAAISGSGGSTYYADSVKGRFTISRDNAKNTVYLQMNSLKPEDTAVYYCASDPYHWRWGWRHDYWGQGTQVTVSS | low polyreactivity
40 | QVHLVESGGGLVQAGGILRLSCAASGRTFLWYAMGWSRQAPGKERELVAAISKRGGSTYYADSVKGRFTISRDKAKNTVYLQMNSLKPVDTAVYYCAAEKRYSSYDYWGQGTQVSVSS | high polyreactivity
41 | QVHLVESGGGLVQAGGILRLSCAASGRTFPGYAMGWYRQAPGKERELVAAITYTGGDTHYADSVKGRFTISRDNAKNTVYLQMNSLKPEDTAVYYCAAVYYRGIQSYDYWGQGTQVTVSS | low polyreactivity
42 | QVHLVESGGGLVQAGGILRLSCSAYGSIFDVNAKGWYRQSPGKERELVAAISDSGGSTYYADSVKGRFTISRDNAKNTVYLQMNSLKPEDTSVYYCNADWYWYNYYDFDYWGQGTQVTVSS | low polyreactivity
43 | QVHLVESGGGLVQAGGRLLLSCAASGLILRTYGMGWYRQAPRKERELVAVISSGGSTYYADSVNGRFTISRDNAKNTVYLQMNSLKPEDTAVYYCAVRSSWYEGDYWGQGTQVTVSS | low polyreactivity
